First the molecules themselves.
B1: CaMKIIα 290-309 peptide WT (peptide, UniProt P11275 290-309, looked up)
peptide: LKKFNARRKLKGAILTTMLA
notes: CaMKIIα regulatory segment, residues 290-309; Probably a synthetic peptide; also called WT CaMKIIα 290-309; N-terminally shifted regulatory segment peptide (WT)
B2: CaMKIIα 290-309 peptide AA (T305A/T306A) (peptide, UniProt P11275 290-309, looked up)
peptide: LKKFNARRKLKGAILAAMLA
notes: CaMKIIα regulatory segment, residues 290-309; Probably a synthetic peptide; also called AA CaMKIIα 290-309; N-terminally shifted regulatory segment peptide (AA)
B3: CaMKIIα 294-315 peptide T305A/T306A (peptide, UniProt P11275 294-315, looked up)
peptide: NARRKLKGAILAAMLATRNFSG
notes: Probably a synthetic peptide; also called AA isolated regulatory segment
B4: CaMKIIα 294-315 peptide T305A (peptide, UniProt P11275 294-315, looked up)
peptide: NARRKLKGAILATMLATRNFSG
notes: Probably a synthetic peptide; also called T305A regulatory segment
B5: CaMKIIα 294-315 peptide T306A (peptide, UniProt P11275 294-315, looked up)
peptide: NARRKLKGAILTAMLATRNFSG
notes: Probably a synthetic peptide; also called T306A regulatory segment

The target of this test is T1, Human α-actinin-2 EF3-4 (positions 827-894) (human, UniProt P35609 827-894).
T1 construct: α-actinin-2, human, third and fourth EF hands, positions 827-894; also called α-actinin-2 EF hands 3-4; source: E. coli Rosetta pLysS, purified (Ni-NTA, Glutathione Sepharose, Tev cleavage, Superdex 75); not shown: His, N-terminal, cleaved; GST, N-terminal, cleaved
T1 sequence (P35609 827-894): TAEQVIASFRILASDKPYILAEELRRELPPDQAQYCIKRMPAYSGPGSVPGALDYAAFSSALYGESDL
Kind of test: ITC; MicroCal PEAQ, 25 °C, 25 mM HEPES pH 7.5, 150 mM NaCl; syringe 500 μM CaMKIIα peptide, cell 50 μM EF3-4; single site binding model. The note with it: both partners purified. (Isothermal titration calorimetry measures the heat released or taken up as one component is titrated into another.)
Turning to B1, the affinity, expressed as Kd, was 3.46 ± 0.08 µM. As to B2, the dissociation constant Kd (in general, a measure of binding affinity in units of concentration) was 0.146 ± 0.012 µM. Compared with the last molecule, the Kd is about 24-fold lower. For B3 the value was 14.7 ± 1.2 µM; for B4, 19.4 ± 0.7 µM; for B5, 19.8 ± 1.9 µM.

The values are drawn from article doi:10.1101/2025.03.18.643923, “Widely used CaMKII regulatory segment mutations cause tight actinin binding and dendritic spine enlargement in unstimulated neurons” (bioRxiv, 2025).
